For 67 sequences, protein stability index results are on record in the supplement of paper PMC10724198.

± gives the standard deviation of the averaged measurements.

The test system of the data set is Saccharomyces cerevisiae. The data set can be described thus: protein stability index of tFT-peptide fusion (C-terminal peptide) (PSI (0-1 scale)); higher = more stable (slower turnover). Particulars: temperature: 30 C. Here is the method:
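MPS profiling in S. cerevisiae of the yeast C-terminome library: the last 12 aa of each annotated ORF are fused to the C-terminus of a sfGFP-mCherry timer, after a GGGS linker. Cells are FACS-sorted into 8 mCherry/sfGFP bins and deep-sequenced. PSI runs from 0 (unstable) to 1 (stable); wild type and das1Δ backgrounds, two technical replicates each.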

The mark [1] stands for this setting: genetic background: das1 deletion.

With KGVIGTNPPITH [MPC3 C-terminal 12 aa], the protein stability index by setting is: under setting [1], 0.7045 ± 0.0018; (genetic background: wild type) 0.719 ± 0.081.

KGVVTLEEILKA [COQ11 C-terminal 12 aa]: the protein stability index by setting is: under setting [1], 0.712 ± 0.012; (genetic background: wild type) 0.712 ± 0.028.

Consider KHKNILPFNFTK [YEL074W C-terminal 12 aa], for which the protein stability index reads like this: under setting [1], 0.703 ± 0.037; (genetic background: wild type) 0.741 ± 0.0086.

Regarding KIGKGKLYFAIV [YDR220C C-terminal 12 aa], the protein stability index runs as follows: under setting [1], 0.666 ± 0.011; (genetic background: wild type) 0.491 ± 0.015.

Turning to KIITLDLSNYAE [SMC1 C-terminal 12 aa], the protein stability index under setting [1] was 0.709 ± 0.057 and the protein stability index (genetic background: wild type) came to 0.672 ± 0.049.

In the case of KIRPTFGDNQAS [HST3 C-terminal 12 aa], the protein stability index runs as follows: under setting [1], 0.6923 ± 0.001; (genetic background: wild type) 0.73 ± 0.043.

In the case of KISLLSHAQCYK [YIR016W C-terminal 12 aa], the protein stability index runs as follows: under setting [1], 0.668 ± 0.024; (genetic background: wild type) 0.6506 ± 0.0051.

Regarding KKGETFGYDKWW [OPT1 C-terminal 12 aa], the protein stability index by setting is: under setting [1], 0.725 ± 0.021; (genetic background: wild type) 0.683 ± 0.032.

Take KKGPKFKSRKKL [RRP12 C-terminal 12 aa]: the protein stability index was found to be 0.748 ± 0.037 under setting [1] and 0.678 ± 0.011 (genetic background: wild type).

As for KKHRVGMPKEDK [DIC1 C-terminal 12 aa], the protein stability index by setting is: under setting [1], 0.67 ± 0.013; (genetic background: wild type) 0.69 ± 0.031.

On to “KKIIKKKDFYHR [YOR011W-A C-terminal 12 aa]”, for which the protein stability index by setting is: under setting [1], 0.728 ± 0.015; (genetic background: wild type) 0.706 ± 0.04.

On to KKKDASQEESLI [VMA2 C-terminal 12 aa], for which the protein stability index came to 0.6922 ± 0.0019 under setting [1] and 0.7066 ± 0.0041 (genetic background: wild type).

KKKKNASTCTIL [RSR1 C-terminal 12 aa]: the protein stability index runs as follows: under setting [1], 0.7494 ± 0.0014; (genetic background: wild type) 0.711 ± 0.03.

On to “KKKKQIKNFQFG [YMR290W-A C-terminal 12 aa]”, for which the protein stability index is, setting by setting: under setting [1], 0.687 ± 0.0087; (genetic background: wild type) 0.656 ± 0.05.

For the sequence KKLDGEVLCRVK [MRPS8 C-terminal 12 aa], the protein stability index came to 0.659 ± 0.021 under setting [1] and 0.6437 ± 0.0055 (genetic background: wild type).

Turning to KKLNRKIASIFN [ZEO1 C-terminal 12 aa], the protein stability index by setting is: under setting [1], 0.718 ± 0.011; (genetic background: wild type) 0.6644 ± 0.0016.

In the case of KKLRQPKEGETF [MMS2 C-terminal 12 aa], the protein stability index was 0.7046 ± 0.00082 under setting [1] and 0.6737 ± 0.00082 (genetic background: wild type).

KKRKFGKVRIKN [NEJ1 C-terminal 12 aa]: the protein stability index is 0.706 ± 0.047 under setting [1] and 0.698 ± 0.0074 (genetic background: wild type).

As for KLAEHGAKKQKI [GCD10 C-terminal 12 aa], the protein stability index by setting is: under setting [1], 0.7217 ± 0.0024; (genetic background: wild type) 0.659 ± 0.016.

As to KLESSKNTSHEK [NFU1 C-terminal 12 aa], the protein stability index under setting [1] was found to be 0.725 ± 0.0084 and the protein stability index (genetic background: wild type) came out at 0.705 ± 0.0085.

On to KLGLFRHIFSRK [LRE1 C-terminal 12 aa], for which the protein stability index is, setting by setting: under setting [1], 0.691 ± 0.012; (genetic background: wild type) 0.704 ± 0.01.

Regarding KLLIRFILLVNS [YPR130C C-terminal 12 aa], the protein stability index runs as follows: under setting [1], 0.172 ± 0.016; (genetic background: wild type) 0.111 ± 0.0048.

In the case of KLLLNELRSFCV [PCL10 C-terminal 12 aa], the protein stability index reads like this: under setting [1], 0.72 ± 0.009; (genetic background: wild type) 0.694 ± 0.028.

Regarding KLLQIHKSKQQD [TAH11 C-terminal 12 aa], the protein stability index reads like this: under setting [1], 0.69 ± 0.013; (genetic background: wild type) 0.706 ± 0.012.

Regarding KLRITSQENKTE [BCK1 C-terminal 12 aa], the protein stability index by setting is: under setting [1], 0.68 ± 0.022; (genetic background: wild type) 0.766 ± 0.036.

As for KLRREDEIIVYA [REC8 C-terminal 12 aa], the protein stability index stood at 0.6145 ± 0.0033 under setting [1] and 0.644 ± 0.0052 (genetic background: wild type).

As for “KLVWTLQSLCMR [YEL032C-A C-terminal 12 aa]”, the protein stability index under setting [1] is 0.688 ± 0.0084 and the protein stability index (genetic background: wild type) turned out to be 0.681 ± 0.021.

On to KMIESLKSKLKE [CIN5 C-terminal 12 aa], for which the protein stability index stood at 0.693 ± 0.02 under setting [1] and 0.686 ± 0.027 (genetic background: wild type).

Take KMKQRKLTPGDS [CMC4 C-terminal 12 aa]: the protein stability index came out at 0.691 ± 0.018 under setting [1] and 0.65 ± 0.0073 (genetic background: wild type).

Take KNEEDSTYFSNV [PMR1 C-terminal 12 aa]: the protein stability index runs as follows: under setting [1], 0.6935 ± 0.0013; (genetic background: wild type) 0.698 ± 0.027.

For KNKTKQNQAQSW [LTO1 C-terminal 12 aa], the protein stability index by setting is: under setting [1], 0.704 ± 0.012; (genetic background: wild type) 0.679 ± 0.017.

For the sequence KNLWMRENEITI [HES1 C-terminal 12 aa], the protein stability index is, setting by setting: under setting [1], 0.711 ± 0.059; (genetic background: wild type) 0.71 ± 0.018.

On to KNSDSTEKNATI [DAT1 C-terminal 12 aa], for which the protein stability index runs as follows: under setting [1], 0.702 ± 0.026; (genetic background: wild type) 0.736 ± 0.034.

For KPGTIIHFSTNR [ASK1 C-terminal 12 aa], the protein stability index is 0.71325 ± 0.00059 under setting [1] and 0.691 ± 0.034 (genetic background: wild type).

In the case of KQEQESLGSNSK [DAD3 C-terminal 12 aa], the protein stability index stood at 0.666 ± 0.012 under setting [1] and 0.661 ± 0.035 (genetic background: wild type).

Regarding KQLDLKHMLEMH [MRPL44 C-terminal 12 aa], the protein stability index runs as follows: under setting [1], 0.7 ± 0.0085; (genetic background: wild type) 0.6897 ± 0.0057.

With KQPDLQERVTQE [MHF1 C-terminal 12 aa], the protein stability index amounted to 0.666 ± 0.045 under setting [1] and 0.685 ± 0.14 (genetic background: wild type).

As for KRAELASKYIYS [COG8 C-terminal 12 aa], the protein stability index is, setting by setting: under setting [1], 0.713 ± 0.022; (genetic background: wild type) 0.692 ± 0.015.

For the sequence KRGEIYETGKFF [OLE1 C-terminal 12 aa], the protein stability index came out at 0.707 ± 0.011 under setting [1] and 0.723 ± 0.011 (genetic background: wild type).

On to KTSNTKVSSRKA [ELO3 C-terminal 12 aa], for which the protein stability index runs as follows: under setting [1], 0.6964 ± 0.0051; (genetic background: wild type) 0.673 ± 0.03.

For KTSPTCHNMFDV [SDD4 C-terminal 12 aa], the protein stability index under setting [1] was 0.7283 ± 0.0018 and the protein stability index (genetic background: wild type) amounted to 0.6781 ± 0.00075.

For the sequence KVGNDHMELKKE [TFG1 C-terminal 12 aa], the protein stability index reads like this: under setting [1], 0.699 ± 0.013; (genetic background: wild type) 0.671 ± 0.035.

On to KVHEHDAKNDSK [CMP2 C-terminal 12 aa], for which the protein stability index is 0.702 ± 0.032 under setting [1] and 0.688 ± 0.054 (genetic background: wild type).

On to KVTFINIEINYR [YGR064W C-terminal 12 aa], for which the protein stability index runs as follows: under setting [1], 0.57 ± 0.02; (genetic background: wild type) 0.591 ± 0.03.

On to KWFRENDGKKAN [TSC10 C-terminal 12 aa], for which the protein stability index amounted to 0.7006 ± 0.0047 under setting [1] and 0.6772 ± 0.0044 (genetic background: wild type).

As to KWIEYVEEFQNW [FRE5 C-terminal 12 aa], the protein stability index under setting [1] was determined as 0.7168 ± 0.00097 and the protein stability index (genetic background: wild type) amounted to 0.73 ± 0.016.

For the sequence LAKGGADVKPKK [RDL2 C-terminal 12 aa], the protein stability index under setting [1] was 0.7071 ± 0.0016 and the protein stability index (genetic background: wild type) is 0.708 ± 0.033.

Turning to LASALKELQDAA [YHR112C C-terminal 12 aa], the protein stability index runs as follows: under setting [1], 0.691 ± 0.0097; (genetic background: wild type) 0.682 ± 0.031.

On to “LASVRLSWYSII [YGR204C-A C-terminal 12 aa]”, for which the protein stability index came to 0.71 ± 0.021 under setting [1] and 0.277 ± 0.014 (genetic background: wild type).

In the case of LDLVARTATLSN [NUP84 C-terminal 12 aa], the protein stability index reads like this: under setting [1], 0.695 ± 0.014; (genetic background: wild type) 0.713 ± 0.026.

As for LDNILADLELDV [YIL001W C-terminal 12 aa], the protein stability index amounted to 0.72202 ± 0.00032 under setting [1] and 0.684 ± 0.046 (genetic background: wild type).

With LDYLSSYINRRI [FLP1 C-terminal 12 aa], the protein stability index under setting [1] was found to be 0.7058 ± 0.00092 and the protein stability index (genetic background: wild type) came to 0.6948 ± 0.0047.

As to LEDEDVVTILKK [RBG1 C-terminal 12 aa], the protein stability index runs as follows: under setting [1], 0.705 ± 0.021; (genetic background: wild type) 0.707 ± 0.0083.

With LEKQEDYIDNLV [RPC37 C-terminal 12 aa], the protein stability index reads like this: under setting [1], 0.697 ± 0.02; (genetic background: wild type) 0.73 ± 0.056.

Consider LFCNYITETVEN [ASH1 C-terminal 12 aa], for which the protein stability index was 0.694 ± 0.0018 under setting [1] and 0.645 ± 0.095 (genetic background: wild type).

As for “LFSNVLSLSSNI [YGL007C-A C-terminal 12 aa]”, the protein stability index runs as follows: under setting [1], 0.7296 ± 0.0024; (genetic background: wild type) 0.695 ± 0.016.

For LIGGVGLSIWKK [RTT10 C-terminal 12 aa], the protein stability index turned out to be 0.7069 ± 0.0038 under setting [1] and 0.668 ± 0.032 (genetic background: wild type).

With LIHASSVEQATA [MRPL4 C-terminal 12 aa], the protein stability index turned out to be 0.68 ± 0.016 under setting [1] and 0.6986 ± 0.0057 (genetic background: wild type).

Turning to LILQRLKTSLKI [GFD1 C-terminal 12 aa], the protein stability index under setting [1] was 0.617 ± 0.024 and the protein stability index (genetic background: wild type) was 0.668 ± 0.03.

LIWLTIIYQALT [IRC18 C-terminal 12 aa]: the protein stability index by setting is: under setting [1], 0.249 ± 0.015; (genetic background: wild type) 0.269 ± 0.0048.

On to LKEFTQFCKDNS [MIX23 C-terminal 12 aa], for which the protein stability index by setting is: under setting [1], 0.724 ± 0.023; (genetic background: wild type) 0.721 ± 0.025.

For LKFEPTQEIVES [ITR2 C-terminal 12 aa], the protein stability index reads like this: under setting [1], 0.7054 ± 0.002; (genetic background: wild type) 0.677 ± 0.032.

LKFLEEKFPHDK [AIM17 C-terminal 12 aa] registered a protein stability index under setting [1] of 0.708 ± 0.02 and a protein stability index (genetic background: wild type) of 0.691 ± 0.03.

In the case of “LKIKVHIYRMKR [YHL015W-A C-terminal 12 aa]”, the protein stability index runs as follows: under setting [1], 0.597 ± 0.021; (genetic background: wild type) 0.5995 ± 0.0016.

Regarding LKKEKLQALPTP [PDP3 C-terminal 12 aa], the protein stability index turned out to be 0.691 ± 0.00082 under setting [1] and 0.675 ± 0.011 (genetic background: wild type).

Sequence LKLEQKIGELSK [CRN1 C-terminal 12 aa] had a protein stability index under setting [1] of 0.679 ± 0.0071 and a protein stability index (genetic background: wild type) of 0.718 ± 0.097.

LKNGDKPHMLKF [RPL6A C-terminal 12 aa]: the protein stability index is 0.6789 ± 0.0021 under setting [1] and 0.72 ± 0.053 (genetic background: wild type).
